Assay results: article PMC9482650, “Quantitative fragmentomics allow affinity mapping of interactomes” (Nature Communications, 2022)

Experiments:
Assay in all cases: holdup assay
Set-up in all cases: key: below the threshold = too weak to quantify, mostly under pKd 3.1 to 4
Details in all cases: plain residues with an end cap or a label only (N-terminal biotin on a linker: ado-ado)
AHNAK1, Q09666 = biological target: AHNAK1, Q09666
DFNB31_1, Q9P202 = biological target: T1, DFNB31_1, Q9P202
T1 sequence (Q9P202 135-233, limits assumed, looked up): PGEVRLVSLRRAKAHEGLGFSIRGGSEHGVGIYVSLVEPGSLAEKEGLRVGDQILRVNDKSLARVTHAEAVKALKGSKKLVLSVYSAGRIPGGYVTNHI

DLG1_3, Q12959 = biological target: DLG1_3, Q12959
DLG3_1, Q92796 = biological target: T2, DLG3_1, Q92796
T2 sequence (Q92796 125-227, limits assumed, looked up): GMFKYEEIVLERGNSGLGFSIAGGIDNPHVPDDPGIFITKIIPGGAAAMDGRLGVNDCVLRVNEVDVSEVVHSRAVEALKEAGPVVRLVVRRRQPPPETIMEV

DLG3_2, Q92796 = biological target: T3, DLG3_2, Q92796
T3 sequence (Q92796 221-321, limits assumed, looked up): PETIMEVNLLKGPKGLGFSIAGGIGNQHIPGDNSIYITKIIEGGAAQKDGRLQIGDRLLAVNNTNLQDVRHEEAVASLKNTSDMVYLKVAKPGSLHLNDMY

FRMPD2_3, Q68DX3 = biological target: FRMPD2_3, Q68DX3
GRID2IP_1, A4D2P6 = biological target: GRID2IP_1, A4D2P6
Inadl_3, Q8NI35 = biological target: Inadl_3, Q8NI35
Inadl_5, Q8NI35 = biological target: Inadl_5, Q8NI35
LDB3, O75112 = biological target: LDB3, O75112
LIN7B, Q9HAP6 = biological target: T4, LIN7B, Q9HAP6
T4 sequence (Q9HAP6 88-185, limits assumed, looked up): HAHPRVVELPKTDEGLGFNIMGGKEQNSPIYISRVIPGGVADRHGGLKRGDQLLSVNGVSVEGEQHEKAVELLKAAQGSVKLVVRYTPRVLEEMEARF

MPDZ_10, O75970 = biological target: T5, MPDZ_10, O75970
T5 sequence (O75970 1624-1722, limits assumed, looked up): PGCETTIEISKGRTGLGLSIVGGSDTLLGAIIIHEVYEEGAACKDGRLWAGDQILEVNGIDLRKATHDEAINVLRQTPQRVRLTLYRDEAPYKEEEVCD

MPDZ_12, O75970 = biological target: T6, MPDZ_12, O75970
T6 sequence (O75970 1857-1958, limits assumed, looked up): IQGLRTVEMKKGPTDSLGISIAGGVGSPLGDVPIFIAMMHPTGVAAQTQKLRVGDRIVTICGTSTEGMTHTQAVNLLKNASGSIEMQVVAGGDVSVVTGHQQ

MPDZ_5, O75970 = biological target: T7, MPDZ_5, O75970
T7 sequence (O75970 695-796, limits assumed, looked up): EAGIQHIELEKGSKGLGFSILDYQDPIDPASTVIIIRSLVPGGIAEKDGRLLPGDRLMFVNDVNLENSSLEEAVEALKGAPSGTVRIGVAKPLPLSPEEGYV

NHERF3_3, Q5T2W1 = biological target: T8, NHERF3_3, Q5T2W1
T8 sequence (Q5T2W1 238-333, limits assumed, looked up): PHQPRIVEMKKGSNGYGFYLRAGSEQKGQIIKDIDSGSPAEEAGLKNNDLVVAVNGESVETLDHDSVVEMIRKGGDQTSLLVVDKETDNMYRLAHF

NHERF4_2, Q86UT5 = biological target: NHERF4_2, Q86UT5
NHERF4_4, Q86UT5 = biological target: NHERF4_4, Q86UT5
PDZRN3_1, Q9UPQ7 = biological target: T9, PDZRN3_1, Q9UPQ7
T9 sequence (Q9UPQ7 244-349, limits assumed, looked up): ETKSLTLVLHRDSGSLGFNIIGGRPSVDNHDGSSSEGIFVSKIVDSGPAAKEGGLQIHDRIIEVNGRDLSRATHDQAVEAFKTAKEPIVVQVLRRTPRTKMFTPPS

RAPGEF6, Q8TEU7 = biological target: T10, RAPGEF6, Q8TEU7
T10 sequence (Q8TEU7 525-625, limits assumed, looked up): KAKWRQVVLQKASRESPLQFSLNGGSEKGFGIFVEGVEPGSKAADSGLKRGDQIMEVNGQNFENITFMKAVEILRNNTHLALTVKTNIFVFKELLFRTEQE

SCRIB_1, Q14160 = biological target: SCRIB_1, Q14160
SIPA1L2, Q9P2F8 = biological target: T11, SIPA1L2, Q9P2F8
T11 sequence (Q9P2F8 945-1036, limits assumed, looked up): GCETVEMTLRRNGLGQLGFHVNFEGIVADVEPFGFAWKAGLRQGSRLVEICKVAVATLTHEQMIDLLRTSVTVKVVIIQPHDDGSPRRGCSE

SNTG2, Q9NY99 = biological target: T12, SNTG2, Q9NY99
T12 sequence (Q9NY99 68-166, limits assumed, looked up): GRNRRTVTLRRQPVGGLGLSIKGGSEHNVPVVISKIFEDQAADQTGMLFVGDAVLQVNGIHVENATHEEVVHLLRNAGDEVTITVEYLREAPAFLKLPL

SNX27, Q96L92 = biological target: SNX27, Q96L92
TJP1_3, Q07157 = biological target: TJP1_3, Q07157
Sequence of TJP1_3, Q07157 (Q07157 416-512): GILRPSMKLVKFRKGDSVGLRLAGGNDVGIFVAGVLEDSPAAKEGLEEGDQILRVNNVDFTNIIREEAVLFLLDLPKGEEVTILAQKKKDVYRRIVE

Sequence of Inadl_3, Q8NI35 (Q8NI35 359-469): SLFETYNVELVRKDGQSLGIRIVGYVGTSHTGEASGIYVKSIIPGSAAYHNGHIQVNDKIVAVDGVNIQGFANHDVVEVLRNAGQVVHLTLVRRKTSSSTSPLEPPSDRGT
Sequence of SCRIB_1, Q14160 (Q14160 718-814): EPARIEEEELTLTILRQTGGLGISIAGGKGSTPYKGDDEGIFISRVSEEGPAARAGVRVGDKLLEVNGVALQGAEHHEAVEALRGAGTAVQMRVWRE
Sequence of LDB3, O75112 (O75112 1-94): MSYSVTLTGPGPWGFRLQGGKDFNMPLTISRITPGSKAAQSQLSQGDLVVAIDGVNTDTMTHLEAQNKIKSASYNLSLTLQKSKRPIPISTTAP
Sequence of NHERF4_2, Q86UT5 (Q86UT5 220-308): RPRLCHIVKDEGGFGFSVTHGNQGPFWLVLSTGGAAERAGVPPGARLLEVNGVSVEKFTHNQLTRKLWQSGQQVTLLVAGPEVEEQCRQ
Sequence of AHNAK1, Q09666 (Q09666 4-100): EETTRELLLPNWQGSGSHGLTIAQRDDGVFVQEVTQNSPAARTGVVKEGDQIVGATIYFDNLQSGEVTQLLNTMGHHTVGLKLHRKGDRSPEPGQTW
Sequence of FRMPD2_3, Q68DX3 (Q68DX3 1073-1166): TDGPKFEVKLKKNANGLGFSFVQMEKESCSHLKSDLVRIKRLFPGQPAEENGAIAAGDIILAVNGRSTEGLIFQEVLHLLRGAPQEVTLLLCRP
Sequence of GRID2IP_1, A4D2P6 (A4D2P6 1-87): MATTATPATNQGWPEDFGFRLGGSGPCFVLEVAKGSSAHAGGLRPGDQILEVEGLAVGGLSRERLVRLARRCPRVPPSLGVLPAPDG
Sequence of NHERF4_4, Q86UT5 (Q86UT5 464-550): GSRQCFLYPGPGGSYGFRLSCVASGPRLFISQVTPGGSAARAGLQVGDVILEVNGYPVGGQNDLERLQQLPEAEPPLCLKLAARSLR
Sequence of Inadl_5, Q8NI35 (Q8NI35 673-780): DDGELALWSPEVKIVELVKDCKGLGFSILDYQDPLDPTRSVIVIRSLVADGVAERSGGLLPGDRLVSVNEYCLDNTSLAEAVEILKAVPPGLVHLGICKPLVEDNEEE
Sequence of DLG1_3, Q12959 (Q12959 457-571): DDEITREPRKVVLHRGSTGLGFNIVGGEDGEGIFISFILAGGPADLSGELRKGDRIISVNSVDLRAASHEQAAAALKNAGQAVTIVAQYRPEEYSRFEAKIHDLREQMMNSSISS

## QSGLYESEEL [MYOT, Q9UBF9]
AHNAK1, Q09666
  pKd: below the threshold
DFNB31_1, Q9P202
  pKd: below the threshold
DLG1_3, Q12959
  pKd: below the threshold
DLG3_1, Q92796
  pKd: below the threshold
DLG3_2, Q92796
  pKd: 4.21
FRMPD2_3, Q68DX3
  pKd: below the threshold
GRID2IP_1, A4D2P6
  pKd: below the threshold
Inadl_3, Q8NI35
  pKd: below the threshold
Inadl_5, Q8NI35
  pKd: below the threshold
LDB3, O75112
  pKd: 5.2
LIN7B, Q9HAP6
  pKd: 3.66
MPDZ_10, O75970
  pKd: below the threshold
MPDZ_12, O75970
  pKd: below the threshold
MPDZ_5, O75970
  pKd: below the threshold
NHERF3_3, Q5T2W1
  pKd: below the threshold
NHERF4_2, Q86UT5
  pKd: below the threshold
NHERF4_4, Q86UT5
  pKd: below the threshold
PDZRN3_1, Q9UPQ7
  pKd: below the threshold
RAPGEF6, Q8TEU7
  pKd: 3.57
SCRIB_1, Q14160
  pKd: 3.76
SIPA1L2, Q9P2F8
  pKd: below the threshold
SNTG2, Q9NY99
  pKd: below the threshold
SNX27, Q96L92
  pKd: below the threshold
TJP1_3, Q07157
  pKd: below the threshold

## PYSESDDDWC [CACNA1A, O00555]
AHNAK1, Q09666
  pKd: below the threshold
DFNB31_1, Q9P202
  pKd: below the threshold
DLG1_3, Q12959
  pKd: below the threshold
DLG3_1, Q92796
  pKd: below the threshold
DLG3_2, Q92796
  pKd: 4.16
FRMPD2_3, Q68DX3
  pKd: below the threshold
GRID2IP_1, A4D2P6
  pKd: below the threshold
Inadl_3, Q8NI35
  pKd: below the threshold
Inadl_5, Q8NI35
  pKd: below the threshold
LDB3, O75112
  pKd: below the threshold
LIN7B, Q9HAP6
  pKd: 3.9
MPDZ_10, O75970
  pKd: below the threshold
MPDZ_12, O75970
  pKd: 3.92
MPDZ_5, O75970
  pKd: below the threshold
NHERF3_3, Q5T2W1
  pKd: below the threshold
NHERF4_2, Q86UT5
  pKd: below the threshold
NHERF4_4, Q86UT5
  pKd: below the threshold
PDZRN3_1, Q9UPQ7
  pKd: below the threshold
RAPGEF6, Q8TEU7
  pKd: below the threshold
SCRIB_1, Q14160
  pKd: below the threshold
SIPA1L2, Q9P2F8
  pKd: below the threshold
SNTG2, Q9NY99
  pKd: below the threshold
SNX27, Q96L92
  pKd: 4.09
TJP1_3, Q07157
  pKd: below the threshold

## AQRARSPSDV [GPR12, P47775]
AHNAK1, Q09666
  pKd: below the threshold
DFNB31_1, Q9P202
  pKd: below the threshold
DLG1_3, Q12959
  pKd: below the threshold
DLG3_1, Q92796
  pKd: below the threshold
DLG3_2, Q92796
  pKd: 4.32
FRMPD2_3, Q68DX3
  pKd: below the threshold
GRID2IP_1, A4D2P6
  pKd: below the threshold
Inadl_3, Q8NI35
  pKd: below the threshold
Inadl_5, Q8NI35
  pKd: 3.85
LDB3, O75112
  pKd: below the threshold
LIN7B, Q9HAP6
  pKd: 3.75
MPDZ_10, O75970
  pKd: 4.09
MPDZ_12, O75970
  pKd: below the threshold
MPDZ_5, O75970
  pKd: below the threshold
NHERF3_3, Q5T2W1
  pKd: below the threshold
NHERF4_2, Q86UT5
  pKd: below the threshold
NHERF4_4, Q86UT5
  pKd: below the threshold
PDZRN3_1, Q9UPQ7
  pKd: below the threshold
RAPGEF6, Q8TEU7
  pKd: below the threshold
SCRIB_1, Q14160
  pKd: below the threshold
SIPA1L2, Q9P2F8
  pKd: below the threshold
SNTG2, Q9NY99
  pKd: below the threshold
SNX27, Q96L92
  pKd: below the threshold
TJP1_3, Q07157
  pKd: below the threshold
